The target in one assay is T1, mIgM (Mus musculus, UniProt P01872).
T1 sequence (P01872 1-454): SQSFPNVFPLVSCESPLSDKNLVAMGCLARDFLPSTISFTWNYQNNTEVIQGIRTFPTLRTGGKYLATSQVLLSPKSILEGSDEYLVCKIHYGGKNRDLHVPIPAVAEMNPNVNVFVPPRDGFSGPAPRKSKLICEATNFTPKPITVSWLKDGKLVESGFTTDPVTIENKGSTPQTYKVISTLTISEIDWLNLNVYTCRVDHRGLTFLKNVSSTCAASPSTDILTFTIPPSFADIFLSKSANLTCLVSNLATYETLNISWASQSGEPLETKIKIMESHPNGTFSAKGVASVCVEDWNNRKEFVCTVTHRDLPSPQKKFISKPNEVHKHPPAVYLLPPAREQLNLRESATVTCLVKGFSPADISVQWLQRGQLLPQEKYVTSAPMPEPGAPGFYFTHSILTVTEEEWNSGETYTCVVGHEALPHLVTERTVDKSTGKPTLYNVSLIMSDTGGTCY
As to the kind of experiment: IgM binding ELISA (mouse IgM). The note with it: mIgM-coated ELISA; half-log dilution 10 μg/ml-0.01 μg/ml. As for the experimental part:
Reactivity of the DVD-Ig proteins with mIgM was determined by enzyme-linked immunosorbent assay (ELISA). Briefly, each well of an Ultra Cruz 96 well microtiter plate (Santa Cruz Biotechnology, Dallas, Tex.) was coated with mIgM at a concentration of 1 μg/ml in 100 μl of PBS. The plate was covered in plastic wrap and incubated overnight at 4° C. Each well of the plate was then washed 3× with 300 μl of PBST. After the final wash, 200 μl of blocking buffer (1% BSA in PBS) was added to each well and the plate incubated at RT for 2 hours. The plate was then washed as above. Rows B-H of the microtiter plate were filled with 100 μl of dilution buffer (1% BSA in PBST). The DVD-Ig proteins were then diluted to […] in dilution buffer and 147 μl of a DVD-Ig protein was added in duplicate to row A of a 96 well plate. For a ½ log dilution, 47 μl was transferred from row A to row B. The pipette tips were replaced with clean tips and 47 μl from row B was transferred to row C. The serial transfers were repeated as above until row G. To assess the binding of the secondary detection reagent to the coated IgM, the final transfer 47 μl was only transferred from G1-G10 to H1-H10 and wells H11 and H12 were left containing 100 μl of dilution buffer. To maintain a 100 μl assay volume, 47 μl was removed from wells H1-H10 and G11-G12 and discarded. After the serial dilution was completed, the plate was incubated for 1-2 hours at RT. The plate was washed as above and then 100 μl of horseradish peroxidase conjugated goat α-hIgG Fc specific, diluted 1:3,000 in dilution buffer, was added to each well. The plate was incubated for 1 hour at RT and then washed 4× as above. The plate was developed by adding 100 μl of 3′,3′,5′,5′-Tetramethylbenzidine (TMB) substrate solution to each well and incubating the plate in the dark for 10-15 minutes. The enzymatic reaction was stopped by adding 100 μl of 1M H2SO4 to each well. The plate was read at 450 nm on an EnVision 2102 multilabel reader (Perkin Elmer, Waltham, Mass.).
DVD-Ig proteins DVD3751-DVD3760 were characterized by IgM binding assay at half-log dilution starting at 10 μg/ml-0.01 μg/ml according to the method of Example 2.5.
IgM binding ELISA: Titrations of the DVD-Ig™ proteins (10 μg/ml to 0.01 μg/ml) were added to ELISA plates coated with murine IgM. Bound antibody was detected with biotinylated anti-human IgG and streptavidin-HRP. EC50 were calculated from the titration curve using Prism6.

The test system of a further assay is DNA. The assay can be described thus: Antinuclear antibody (ANA) test. It counts as binding. Details: key to ANA score, relative result: (X)-(XXX) indicates relative results; (XX): (X)-(XXX) indicates relative results; (X)-(XXX) indicates relative results. The note with it: for level of ANA staining: 10 μg/ml, among DVD3751-DVD3760; for ANA score / ANA score, relative result: ANA staining at 10 μg/ml. As for the experimental part: The cloned BWR4 and PA4 antibodies as well as the DVD-Ig proteins were tested for ANA reactivity using the ANA test kit. Briefly, the DVD-Ig proteins and antibodies were diluted to […] in blocking buffer (1% BSA in PBS). The DVD-Ig proteins and antibodies were added to separate wells of an ANA slide at 50 μl/well and incubated in a moist chamber for 2 hours at room temperature (RT). The wells were then washed 3× with PBS. To detect bound antibodies, Alexa Fluor 488 conjugated goat α-human IgG (α-hIgG) was then added at a dilution of 1:1,000 and the slide incubated in a moist chamber for 1 hour. Unbound detecting antibody was removed by immersing the slide in a jar containing PBS and incubating for 10 minutes at RT with gentle rocking. The prior step was repeated 2× and 10 μl of Prolong® Gold Antifade was added to each well and a 24 mm×60 mm #1 cover glass seated on top. The covered slide was incubated overnight at RT and then sealed by applying clear nail polish to the edges. Binding of the DVD-Ig proteins and antibodies to the slides was assessed by fluorescence microscopy.
DVD-Ig proteins DVD3751-DVD3760 were characterized by antinuclear antibody (ANA) staining at 10 μg/ml according to the method of Example 2.4.
ANA: HEp-2 human tissue culture substrate slides were incubated with 5 μg/ml of the anti-DNA-IgG2a or the DVD-Ig™ binding protein for 2 hours at RT. The slides were washed and bound antibodies were detected with Alexa-488 goat anti-human antibody or DyLight 488 goat anti-mouse antibody.

The next assay relates to AM14 WT B cells. As to the kind of experiment: [3H]thymidine incorporation, BCR/TLR9 stimulation of AM14 WT B cells. It counts as cell-based, mouse. Details: key to 3H incorporation AM14 WT, relative result: (X)-(XXX) indicates relative results; (XX): (X)-(XXX) indicates relative results; (X)-(XXX) indicates relative results; level of 3H incorporation / 3H incorporation AM14 WT: dose or concentration left out as unconfirmed. As to conditions: for 3H incorporation AM14 WT: 24 hours, then 6 hours pulse. An excerpt: (§1) The AM14 B cell receptor (BCR) transgenic mouse has been described previously (Sweet et al. (2010) Autoimmun 43(8): 607-18). Briefly, AM14 is a BCR comprising the AM14 heavy chain and the Vk8 light chain that recognizes murine IgG2a (mIgG2a) of the “a” allotype. Between 95-98% of B cells in a mouse positive for the AM14 heavy chain and Vk8 light chain express the AM14 BCR. To generate AM14 B cells that are deficient in TLR9, TLR7 or FcγRIIB, the AM14 and Vk8 genes were bred to the appropriate knock out mice.
(§2) Primary murine B cells were purified by positive selection using BD Imag™ CD45R/B220 magnetic particles (BD Biosciences, San Jose, Calif.). Briefly, B cells were cultured in RPMI containing, pencillin-streptomycin, β-mercaptoethanol, and 5% heat-inactivated fetal calf serum (FCS) in 96 well flat bottom plates at a density of 4×10^5 cells/well. For stimulation through the BCR and TLR9, B cells were treated with a titration of 0.3 μg/ml-0.03 μg/ml of PA4 or 5 μg/ml to 0.15 μg/ml of a DVD-Ig protein (DVD3751, DVD3752, DVD3754, DVD3755, DVD3759 and DVD3760), unless otherwise noted. Cells were also treated with 1 μg/ml 1826, an experimental ligand for TLR9, as a control. After 24 hours, the cells were pulsed for 6 hours with [3H]thymidine (Perkin Elmer, Waltham Mass.). Incorporation of [3H]thymidine was quantified via a liquid scintillation beta counter (Trilux 1450 MicroBeta, PerkinElmer) according to standard methods.
(§3) DVD-Ig proteins DVD3751-DVD3760 were characterized by ^3H incorporation at […] according to the method of Example 2.6.
In general terms: Incorporation of labelled thymidine or its analogues reports DNA synthesis.

The next assay has as its system AM14 TLR9−/− B cells. As to the kind of experiment: [3H]thymidine incorporation, BCR/TLR9 stimulation of AM14 TLR9-/- B cells. As to conditions: at 5 mg/ml; 24 hours, then 6 hours pulse. Format: cell-based, mouse.
Source text: as §1, §2, §3

B1: DVD3752: DVD-Ig: VD1 DNA(PA4), SS linker, VD2 mIgM (B7.6); heavy SEQ ID NO 50, light 51 (antibody)
heavy: EVQLVESGGGLVKPGGSLKLSCVASGFTFSTYAMSWVRQTPTKRLEWVATISRGGVSTYYPDTVKGRFTISRDNAKNTLYLQMSSLRSEDTAMYYCARPPTIVTTWFAYWGQGTLVTVSSASTKGPQVQLKESGPGLVKPSLTLSLTCTVSGFSLNGYGVIWVRQPPGKGLEWMGVIWGNGNTNYNSTLKSRLSISRDTSKSQVFLKMNNLQTEDTAMYFCARSENYYSSPGYFAYWGQGTLVTVSS
light: DVVMTQTPLSLPVSLGDQASISCRSSQSLVHSNGNTYLHWYLQKPGQSPKLLIYKVSNRFSGVPDRFSGSGSGTDFTLKISRVEAEDLGAYFCSQSTHVPYTFGGPTRLEIKRTVAAPNTVMTQSPTSMFISVGDRVTMNCKASQNVGSDVDWYQQKTGQSPKLLISGTSNRYTGVPDRFTGSGSGTDFTLTISNMQAEDLAVYYCLQYNYNPTFGAGTKLELKR
Turning to B1, in the assay with mIgM, the “IgM Binding EC50” value amounted to 0.205 µg/mL. In addition, in the assay with DNA, the “level of ANA staining” value was “highest level of staining”; the ANA score came to 4; the “ANA score, relative result” value was “(XXX)”. In the assay on AM14 WT B cells, the “3H incorporation AM14 WT, relative result” value is reported as “(XX)” and the “3H incorporation AM14 WT” value is reported as “(12682)”. The “3H incorporation AM14 TLR9−/−” value in the assay with AM14 TLR9−/− B cells is on record as “(512)”.

B2: DVD3755: DVD-Ig: VD1 DNA(PA4), LS linker, VD2 mIgM (B7.6); heavy SEQ ID NO 56, light 57 (antibody)
heavy: EVQLVESGGGLVKPGGSLKLSCVASGFTFSTYAMSWVRQTPTKRLEWVATISRGGVSTYYPDTVKGRFTISRDNAKNTLYLQMSSLRSEDTAMYYCARPPTIVTTWFAYWGQGTLVTVSSASTKGPSVFPLAPQVQLKESGPGLVKPSLTLSLTCTVSGFSLNGYGVIWVRQPPGKGLEWMGVIWGNGNTNYNSTLKSRLSISRDTSKSQVFLKMNNLQTEDTAMYFCARSENYYSSPGYFAYWGQGTLVTVSS
light: DVVMTQTPLSLPVSLGDQASISCRSSQSLVHSNGNTYLHWYLQKPGQSPKLLIYKVSNRFSGVPDRFSGSGSGTDFTLKISRVEAEDLGAYFCSQSTHVPYTFGGPTRLEIKRTVAAPNTVMTQSPTSMFISVGDRVTMNCKASQNVGSDVDWYQQKTGQSPKLLISGTSNRYTGVPDRFTGSGSGTDFTLTISNMQAEDLAVYYCLQYNYNPTFGAGTKLELKR
Regarding B2, in the assay with mIgM, the “IgM Binding EC50” value stood at 0.09709 µg/mL. In the assay with DNA, the “level of ANA staining” value is recorded as “highest level of staining”; the ANA score was 4.5; the “ANA score, relative result” value was “(XXX)”. For the same molecule, in the assay with AM14 WT B cells, the “3H incorporation AM14 WT, relative result” value is on record as “(X)” and the “3H incorporation AM14 WT” value is listed as “(8498)”. In the assay on AM14 TLR9−/− B cells, the “3H incorporation AM14 TLR9−/−” value was “(402)”.

B3: DVD3751: DVD-Ig: VD1 DNA(PA4), GS linker, VD2 mIgM (B7.6); heavy SEQ ID NO 48, light 49 (antibody)
heavy: EVQLVESGGGLVKPGGSLKLSCVASGFTFSTYAMSWVRQTPTKRLEWVATISRGGVSTYYPDTVKGRFTISRDNAKNTLYLQMSSLRSEDTAMYYCARPPTIVTTWFAYWGQGTLVTVSSGGGGSGGGGSQVQLKESGPGLVKPSLTLSLTCTVSGFSLNGYGVIWVRQPPGKGLEWMGVIWGNGNTNYNSTLKSRLSISRDTSKSQVFLKMNNLQTEDTAMYFCARSENYYSSPGYFAYWGQGTLVTVSS
light: DVVMTQTPLSLPVSLGDQASISCRSSQSLVHSNGNTYLHWYLQKPGQSPKLLIYKVSNRFSGVPDRFSGSGSGTDFTLKISRVEAEDLGAYFCSQSTHVPYTFGGPTRLEIKRGGSGGGGSGNTVMTQSPTSMFISVGDRVTMNCKASQNVGSDVDWYQQKTGQSPKLLISGTSNRYTGVPDRFTGSGSGTDFTLTISNMQAEDLAVYYCLQYNYNPTFGAGTKLELKR
For B3, in the assay with mIgM, the “IgM Binding EC50” value was determined as 0.1909 µg/mL. Besides, in the assay on DNA, the ANA score came out at 2 and the “ANA score, relative result” value is listed as “(X)”. In the assay on AM14 WT B cells, the “3H incorporation AM14 WT, relative result” value is given as “(XXX)” and the “3H incorporation AM14 WT” value is “(35554)”. Moreover, the “level of 3H incorporation” value with AM14 WT B cells (among DVD3751-DVD3760) was “highest level of ^3H incorporation”. Moreover, in the assay on AM14 TLR9−/− B cells, the “3H incorporation AM14 TLR9−/−” value is recorded as “(1184)”.

(Values after patent publication US20150125397A1, “DUAL SPECIFIC BINDING PROTEINS DIRECTED AGAINST IMMUNE CELL RECEPTORS AND AUTOANTIGENS” (ABBVIE INC., priority 2013, published 2015).)
